Earlier results on four substances are cited in article PMC10696404.

Values joined by “and” are separate entries in the source; they are usually repeats but may differ in a detail not shown here. Identical values can stand only once.

By Kd is commonly meant the equilibrium constant for the complex coming apart.

One data set addresses CD44vRA (Homo sapiens) (UniProt P16070). As to the kind of experiment: SPR.
The next data set deals with ALCAM (Homo sapiens) (UniProt Q13740). As to the kind of experiment: SPR.
ALCAM (Homo sapiens), sequence (Q13740 28-583): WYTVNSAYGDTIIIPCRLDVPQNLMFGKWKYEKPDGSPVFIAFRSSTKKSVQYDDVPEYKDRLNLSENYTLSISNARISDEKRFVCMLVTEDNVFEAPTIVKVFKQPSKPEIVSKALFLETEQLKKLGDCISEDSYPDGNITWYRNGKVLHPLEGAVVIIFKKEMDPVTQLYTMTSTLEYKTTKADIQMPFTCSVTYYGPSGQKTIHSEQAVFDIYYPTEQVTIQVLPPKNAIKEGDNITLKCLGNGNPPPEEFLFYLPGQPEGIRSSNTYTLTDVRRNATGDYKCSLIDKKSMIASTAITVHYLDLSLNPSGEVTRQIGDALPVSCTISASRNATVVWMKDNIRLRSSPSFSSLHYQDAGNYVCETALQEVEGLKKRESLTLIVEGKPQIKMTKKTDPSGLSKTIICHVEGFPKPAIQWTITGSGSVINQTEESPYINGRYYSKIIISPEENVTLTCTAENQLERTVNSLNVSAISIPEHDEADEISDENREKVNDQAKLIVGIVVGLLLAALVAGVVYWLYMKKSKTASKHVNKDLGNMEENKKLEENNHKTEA
For another data set, the target named is CD44v3-10 (Homo sapiens) (UniProt P16070). As to the kind of experiment: SPR.
Another data set deals with CD44s (Homo sapiens) (UniProt P16070). Briefly: SPR. A general note: Surface plasmon resonance follows binding to a sensor surface in real time, without labels.
A further data set concerns the target CEA (Homo sapiens) (UniProt P06731). As to the kind of experiment: SPR.
The target of another data set is CD146 ECD (Homo sapiens) (UniProt P43121). Briefly: bio-layer interferometry. (In general: BLI is a label-free optical method that tracks binding on a fibre tip over time.)
For the next data set, the target named is DLL4 (Homo sapiens) (UniProt Q9NR61). As to the kind of experiment: SPR.
DLL4 (Homo sapiens), sequence (Q9NR61 27-685): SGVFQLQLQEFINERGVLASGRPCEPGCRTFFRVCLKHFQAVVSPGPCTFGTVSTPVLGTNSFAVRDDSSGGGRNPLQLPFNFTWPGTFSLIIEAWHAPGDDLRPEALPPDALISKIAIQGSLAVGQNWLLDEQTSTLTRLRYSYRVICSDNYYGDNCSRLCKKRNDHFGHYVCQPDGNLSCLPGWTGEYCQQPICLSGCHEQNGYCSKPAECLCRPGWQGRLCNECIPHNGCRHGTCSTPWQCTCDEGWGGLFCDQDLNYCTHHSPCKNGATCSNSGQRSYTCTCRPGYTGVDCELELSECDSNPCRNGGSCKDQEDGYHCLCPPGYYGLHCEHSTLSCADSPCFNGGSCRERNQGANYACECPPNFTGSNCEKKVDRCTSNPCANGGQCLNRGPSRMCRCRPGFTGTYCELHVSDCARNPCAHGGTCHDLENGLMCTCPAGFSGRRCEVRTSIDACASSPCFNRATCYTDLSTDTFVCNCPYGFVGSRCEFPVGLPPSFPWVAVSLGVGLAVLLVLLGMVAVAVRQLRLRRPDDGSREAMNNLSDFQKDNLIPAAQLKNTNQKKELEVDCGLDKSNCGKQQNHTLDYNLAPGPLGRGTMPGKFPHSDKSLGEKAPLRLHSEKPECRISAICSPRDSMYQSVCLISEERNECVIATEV
The target in the next data set is CD13 (Homo sapiens) (UniProt P15144). Briefly: SPR.
CD13 (Homo sapiens), sequence (P15144 2-967): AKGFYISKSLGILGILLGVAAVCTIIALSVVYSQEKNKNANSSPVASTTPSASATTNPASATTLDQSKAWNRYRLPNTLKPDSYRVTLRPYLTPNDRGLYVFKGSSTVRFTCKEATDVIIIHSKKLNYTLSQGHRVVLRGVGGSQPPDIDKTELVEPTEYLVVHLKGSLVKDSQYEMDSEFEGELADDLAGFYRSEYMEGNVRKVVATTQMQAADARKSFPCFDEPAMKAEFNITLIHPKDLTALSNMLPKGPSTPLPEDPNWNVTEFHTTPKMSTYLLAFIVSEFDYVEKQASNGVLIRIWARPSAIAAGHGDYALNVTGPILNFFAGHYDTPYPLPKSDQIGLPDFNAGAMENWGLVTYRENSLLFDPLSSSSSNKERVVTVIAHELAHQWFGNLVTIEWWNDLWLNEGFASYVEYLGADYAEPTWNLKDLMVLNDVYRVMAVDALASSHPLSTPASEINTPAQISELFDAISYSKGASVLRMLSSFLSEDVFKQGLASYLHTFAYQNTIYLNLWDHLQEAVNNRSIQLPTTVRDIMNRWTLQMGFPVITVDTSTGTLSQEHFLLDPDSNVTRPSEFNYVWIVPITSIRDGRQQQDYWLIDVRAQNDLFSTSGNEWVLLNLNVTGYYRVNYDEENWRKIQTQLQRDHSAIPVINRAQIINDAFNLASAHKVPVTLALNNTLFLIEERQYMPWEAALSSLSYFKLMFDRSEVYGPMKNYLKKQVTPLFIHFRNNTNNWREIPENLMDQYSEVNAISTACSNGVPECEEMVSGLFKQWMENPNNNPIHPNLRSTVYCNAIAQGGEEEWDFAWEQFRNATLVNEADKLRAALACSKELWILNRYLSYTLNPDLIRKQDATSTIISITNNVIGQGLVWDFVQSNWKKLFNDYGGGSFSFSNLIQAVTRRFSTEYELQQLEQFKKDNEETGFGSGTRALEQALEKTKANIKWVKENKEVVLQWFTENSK
The target of another data set is JAG1 (Homo sapiens) (UniProt P78504). As to the kind of experiment: SPR.
JAG1 (Homo sapiens), sequence (P78504 34-1218): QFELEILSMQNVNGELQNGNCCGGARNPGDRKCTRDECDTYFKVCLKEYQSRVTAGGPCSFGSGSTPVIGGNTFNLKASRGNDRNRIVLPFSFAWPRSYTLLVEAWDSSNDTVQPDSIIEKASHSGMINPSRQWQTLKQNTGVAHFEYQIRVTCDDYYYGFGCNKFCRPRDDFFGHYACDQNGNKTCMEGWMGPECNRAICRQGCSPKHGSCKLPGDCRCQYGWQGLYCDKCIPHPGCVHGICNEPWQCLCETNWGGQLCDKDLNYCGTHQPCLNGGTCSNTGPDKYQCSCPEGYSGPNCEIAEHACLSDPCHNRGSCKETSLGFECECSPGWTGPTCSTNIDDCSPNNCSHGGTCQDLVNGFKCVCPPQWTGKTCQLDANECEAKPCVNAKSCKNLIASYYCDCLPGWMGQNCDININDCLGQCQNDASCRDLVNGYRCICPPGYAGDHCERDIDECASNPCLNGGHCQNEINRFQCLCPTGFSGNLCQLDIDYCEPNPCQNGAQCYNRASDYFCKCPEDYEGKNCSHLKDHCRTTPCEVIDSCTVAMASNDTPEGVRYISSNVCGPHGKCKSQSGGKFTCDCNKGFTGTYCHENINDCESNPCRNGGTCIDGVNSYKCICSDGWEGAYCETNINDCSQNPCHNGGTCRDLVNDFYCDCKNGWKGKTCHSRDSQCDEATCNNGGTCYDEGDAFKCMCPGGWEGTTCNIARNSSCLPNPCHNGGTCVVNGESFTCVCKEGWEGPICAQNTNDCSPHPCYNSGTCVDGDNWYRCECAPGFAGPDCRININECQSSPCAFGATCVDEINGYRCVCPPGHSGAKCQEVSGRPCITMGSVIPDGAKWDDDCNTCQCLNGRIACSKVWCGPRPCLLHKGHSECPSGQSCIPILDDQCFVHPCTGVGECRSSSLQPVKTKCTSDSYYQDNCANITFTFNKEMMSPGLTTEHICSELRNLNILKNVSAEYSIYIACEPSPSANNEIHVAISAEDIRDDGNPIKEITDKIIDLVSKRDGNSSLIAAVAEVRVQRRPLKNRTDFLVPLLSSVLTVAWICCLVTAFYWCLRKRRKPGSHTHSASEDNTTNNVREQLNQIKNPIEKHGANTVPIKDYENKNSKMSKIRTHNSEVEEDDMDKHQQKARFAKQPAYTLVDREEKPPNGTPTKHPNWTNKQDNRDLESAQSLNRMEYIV
For a further data set, the target named is NRP1 (Homo sapiens) (UniProt O14786). Briefly: SPR.

GAL-3, sequence (P17931 2-250): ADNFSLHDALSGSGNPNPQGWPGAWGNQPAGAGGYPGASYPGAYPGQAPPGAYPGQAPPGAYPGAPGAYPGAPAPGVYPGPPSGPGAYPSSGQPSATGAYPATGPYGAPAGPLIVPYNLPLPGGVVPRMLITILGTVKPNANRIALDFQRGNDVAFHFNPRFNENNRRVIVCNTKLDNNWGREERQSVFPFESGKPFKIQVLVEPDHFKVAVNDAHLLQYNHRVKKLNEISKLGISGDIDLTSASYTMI
GAL-8, sequence (O00214 whole entry): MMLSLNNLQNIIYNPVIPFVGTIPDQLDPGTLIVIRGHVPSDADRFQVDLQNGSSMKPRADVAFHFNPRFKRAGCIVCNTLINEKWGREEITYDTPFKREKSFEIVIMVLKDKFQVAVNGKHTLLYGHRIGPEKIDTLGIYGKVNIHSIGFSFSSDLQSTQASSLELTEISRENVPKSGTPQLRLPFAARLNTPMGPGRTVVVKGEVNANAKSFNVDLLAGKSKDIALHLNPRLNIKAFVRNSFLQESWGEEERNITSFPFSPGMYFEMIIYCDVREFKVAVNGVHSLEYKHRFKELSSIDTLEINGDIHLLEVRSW
GAL-4, sequence (P56470 whole entry): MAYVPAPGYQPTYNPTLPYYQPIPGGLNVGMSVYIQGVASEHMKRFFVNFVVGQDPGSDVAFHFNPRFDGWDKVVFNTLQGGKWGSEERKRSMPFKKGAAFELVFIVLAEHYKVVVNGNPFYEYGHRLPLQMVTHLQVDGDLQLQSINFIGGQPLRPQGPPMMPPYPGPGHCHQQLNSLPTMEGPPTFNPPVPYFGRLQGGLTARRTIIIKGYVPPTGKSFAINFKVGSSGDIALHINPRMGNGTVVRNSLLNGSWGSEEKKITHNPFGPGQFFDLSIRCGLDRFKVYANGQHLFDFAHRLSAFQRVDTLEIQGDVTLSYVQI
CEA (Homo sapiens), sequence (P06731 35-676): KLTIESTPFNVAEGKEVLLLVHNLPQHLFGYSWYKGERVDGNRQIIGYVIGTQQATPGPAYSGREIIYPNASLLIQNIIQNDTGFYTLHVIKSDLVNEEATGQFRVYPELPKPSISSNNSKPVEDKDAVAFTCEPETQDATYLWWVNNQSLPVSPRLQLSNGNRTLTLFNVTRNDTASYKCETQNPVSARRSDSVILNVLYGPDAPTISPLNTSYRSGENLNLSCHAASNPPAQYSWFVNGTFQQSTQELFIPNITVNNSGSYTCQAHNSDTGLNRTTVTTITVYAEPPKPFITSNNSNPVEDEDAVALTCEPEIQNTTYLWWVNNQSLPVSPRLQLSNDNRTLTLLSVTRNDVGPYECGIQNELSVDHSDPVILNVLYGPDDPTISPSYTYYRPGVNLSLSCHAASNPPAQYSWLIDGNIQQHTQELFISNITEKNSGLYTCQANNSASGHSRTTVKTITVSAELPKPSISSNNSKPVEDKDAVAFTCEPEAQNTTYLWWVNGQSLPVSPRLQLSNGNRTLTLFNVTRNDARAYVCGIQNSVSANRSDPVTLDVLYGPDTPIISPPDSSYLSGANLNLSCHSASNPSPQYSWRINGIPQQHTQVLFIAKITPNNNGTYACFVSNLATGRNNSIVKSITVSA

As to GAL-8 (from UniProt O00214), the Kd with CD44vRA (Homo sapiens) is 5.8 nM; with ALCAM (Homo sapiens), 3190 nM and 2000 nM; with CD44v3-10 (Homo sapiens) it was 27 nM; with CD44s (Homo sapiens), 10000 nM.

In the case of GAL-4 (from UniProt P56470), the Kd with CEA (Homo sapiens) was 20 nM.

Consider GAL-3 (from UniProt P17931), for which the Kd with CD146 ECD (Homo sapiens) was 1100 nM; in the data set with DLL4 (Homo sapiens), 8520 nM; with CD13 (Homo sapiens), 349 nM; with JAG1 (Homo sapiens) it was 8910 nM.

In the case of GAL-1 (from UniProt P09382), the Kd in the data set with NRP1 (Homo sapiens) is 109 nM.
